Assay results: article PMC4873633, “Dietary salt regulates uroguanylin expression and signaling activity in the kidney, but not in the intestine” (Physiological Reports, 2016)
Bridge positions count the residues as written; N and C are the ends. Peptide text beside a SMILES is read from it.

Columns and labels:
[1] = target: T1, GC-C (Ugn receptor) in T84 cell membranes (Homo sapiens, UniProt P25092); assay: Competitive Ugn binding assay (125I-Y-Ugn, T84 cell membranes); conditions: pH 4.5, 1 h at 25°C; for Ki: displacement of 1 nmol/L 125I-Y-Ugn, T84 cell membranes, triplicate, rat Ugn n = 8 (R2 0.9985), rat Gn n = 3 (R2 0.9587), rat proUgn n = 3 (R2 0.9677)
T1 construct: plasma membranes derived from the T84 cell line, which abundantly expresses GC‐C; endogenous in cells; host or cells: T84 cell membranes
T1 sequence (P25092 24-1073): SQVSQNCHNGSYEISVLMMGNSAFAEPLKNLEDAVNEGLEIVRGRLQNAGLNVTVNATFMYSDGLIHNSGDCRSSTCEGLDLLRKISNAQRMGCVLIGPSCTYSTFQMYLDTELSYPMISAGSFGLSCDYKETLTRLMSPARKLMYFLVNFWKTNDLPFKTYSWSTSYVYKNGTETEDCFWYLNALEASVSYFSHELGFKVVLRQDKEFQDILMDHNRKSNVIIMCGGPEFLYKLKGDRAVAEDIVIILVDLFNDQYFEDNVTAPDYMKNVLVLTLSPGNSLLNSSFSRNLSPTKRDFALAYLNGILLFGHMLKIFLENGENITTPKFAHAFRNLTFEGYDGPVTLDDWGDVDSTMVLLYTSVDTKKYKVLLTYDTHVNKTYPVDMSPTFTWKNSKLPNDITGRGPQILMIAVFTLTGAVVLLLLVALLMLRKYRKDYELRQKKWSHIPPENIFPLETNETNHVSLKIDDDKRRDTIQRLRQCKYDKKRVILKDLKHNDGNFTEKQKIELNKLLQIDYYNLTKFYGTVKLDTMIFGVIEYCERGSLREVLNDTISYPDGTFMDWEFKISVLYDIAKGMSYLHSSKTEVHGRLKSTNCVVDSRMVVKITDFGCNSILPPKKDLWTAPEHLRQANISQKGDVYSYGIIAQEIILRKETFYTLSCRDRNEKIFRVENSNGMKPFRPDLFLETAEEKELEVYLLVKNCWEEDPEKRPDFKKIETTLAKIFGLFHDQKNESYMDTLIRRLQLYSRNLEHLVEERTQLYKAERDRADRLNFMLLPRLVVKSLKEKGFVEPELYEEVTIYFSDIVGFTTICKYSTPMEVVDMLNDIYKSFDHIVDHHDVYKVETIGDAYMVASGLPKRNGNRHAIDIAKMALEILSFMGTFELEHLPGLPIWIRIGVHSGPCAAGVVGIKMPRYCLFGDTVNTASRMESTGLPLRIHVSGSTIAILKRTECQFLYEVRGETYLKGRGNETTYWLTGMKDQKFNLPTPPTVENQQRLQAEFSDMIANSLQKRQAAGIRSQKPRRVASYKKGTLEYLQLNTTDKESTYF
Protocol: Urine samples were first dialyzed against deionized H2O, using SpectraPor® 500‐M.W. cutoff dialysis membrane (Spectrum Laboratories Inc., Rancho Domingo, CA), then dried (Savant SpeedVac, Thermo Electron Corporation, Waltham, MA) and re‐dissolved in 100 μL of assay buffer [1 nmol/L ^125I‐Y‐Ugn in NaHCO3–free HBSS supplemented with 20 mmol/L sodium citrate and 0.75% bovine serum albumin (Sigma, St. Louis, Mo, USA)]. The pH was individually adjusted to 4.5 with NaOH or HCl using a miniaturized glass microelectrode (Microelectrodes Inc., Bedford, NH). Prepared samples were incubated in triplicate for 1 h at 25°C in polypropylene tubes with 20 μL of T84 cell membranes (10–20 μg protein). Samples were then diluted in 1 mL of ice‐cold rinse buffer, rapidly filtered through Whatman GF/C glass microfiber filters presoaked in distilled water, and quickly rinsed twice with 5 mL of ice‐cold rinse buffer (50 mmol/L Tris‐HCl at pH 7.0). Bound radioligand (retained by the filter) was quantified with a gamma counter (Packard Cobra, PerkinElmer Life and Analytical Sciences Inc., Waltham, MA). Ugn concentrations in sample solutions were calculated by interpolation in a standard curve obtained from a dilution series of synthetic rat Ugn incubated and analyzed in parallel with the unknowns. Non‐specific binding was determined by including 10^−5 mol/L unlabeled Y‐Ugn in place of Ugn standards or unknowns.
All data were plotted as mean ± SEM (or, in the case of n = 2, as mean ± range). Paired t‐tests were used for comparison of Ugn excretion, water consumption, and food consumption. GraphPad Prism 5.0 (LaJolla, CA) was used for analysis of binding data, with formulas derived from the Cheng‐Prusoff equation: cpm bound = NSB + [(B max − NSB)/1 + 10∧[log10(competitor concentration) − log10(IC50)]}], where NSB = nonspecific binding (in the presence of saturating competitor) and B max = maximal binding (in the absence of competitor). […]
Because GC‐C, the Ugn receptor (Schulz et al. 1990), is activated at the apical membranes of the cells that form the renal tubules (White et al. 1989; Hodson et al. 2006; Santos‐Neto et al. 2006), we can evaluate renal Ugn signaling (the presence of Ugn within the tubule lumen) by measuring the rate at which Ugn is excreted in urine (UUgnV). However, the conventional Ugn bioassay, which measures levels of the peptide by quantifying its stimulatory effect on ligand‐activated cGMP synthesis (Carrithers et al. 1999, 2000a), is compromised by high levels of cGMP that are naturally present in urine. […]
It can quantify Ugn in the picomolar range (Fig. 2A, black circles), allowing us to perform triplicate measurements of Ugn in rat urine samples as small as 20 μL. […]

[2] = Tissue (vascular) ligation studies, plasma proUgn; assay type: in vivo, rat
Protocol: Rats were anesthetized (sodium pentobarbital, 60 mg/kg, ip) and prepared for clearance experiments as previously described (Moss et al. 2010). They received an initial infusion of isotonic saline (6% of body weight), followed by an infusion of 10% mannitol in 0.9% saline at 100 μL/min containing FITC‐labeled inulin (400 μg/mL, Sigma Chemical Co. St Louis, MO). For renal ligations, 5.0 silk thread ligatures were placed loosely around right and left renal arteries, and tightened after baseline data had been collected. For intestinal ligations, the bowels were exteriorized and wrapped in saline‐soaked gauze. […] Blood was sampled every 40 min from the femoral artery.
ProUgn concentrations in plasma and tissues were measured by quantitative western blotting, as described previously (Moss et al. 2008). Samples were loaded on 4–12% polyacrylamide gels (Invitrogen Corp., Carlsbad, CA), and a standard curve was constructed with known amounts of recombinant rat proUgn (Ironwood Pharmaceuticals, Cambridge, MA). Gels were blotted to nitrocellulose and probed with primary antibody 6910 (Moss et al. 2008; Qian et al. 2008) and an IR dye‐coupled secondary antibody. Imaging and quantification were performed with an Odyssey System (LI‐COR Biosciences, Lincoln, NE). Values were corrected for recovery, as determined in parallel control assays with known amounts of recombinant rat proUgn.
Previous surveys have identified only two organs (intestine and kidney) that contain levels of proUgn polypeptide sufficient to generate the relatively large circulating pool of proUgn (Moss et al. 2008; Qian et al. 2008). To determine the extent to which each of these organs contributes to the plasma pool, we ligated either the splanchnic or the renal blood supply, and measured the effects of each ligation on circulating proUgn levels. […] For the renal ligations, we also infused each animal with inulin (a reference standard used to assess glomerular filtration rates), and measured plasma inulin at each time point (Fig. 5A, left panel, white symbols). […]

[3] = cited from earlier work
Description: To investigate this in a statistically reliable manner, we obtained single plasma samples from a larger number of individual animals at a specific time of day (3 AM) under each dietary condition. […] Recent speculation has focused on proUgn, rather than Ugn, as the endocrine mediator of this putative signaling axis, because (1) proUgn is by far the most abundant molecular species stored in tissues and circulating in plasma (Moss et al. 2008), and (2) when isotopically labeled recombinant p ...

[4] = intravascular infusion, rodents; ref none printed in abstract; cited from earlier work
Description: Abstract The peptide uroguanylin (Ugn) is expressed at significant levels only in intestine and kidney, and is stored in both tissues primarily (perhaps exclusively) as intact prouroguanylin (proUgn). […] In conjunction with previous studies, this observation critically strengthens the contention that Ugn is an authentic endocrine agent as follows: (1) Ablation of the Ugn gene leads to hypertension (Lorenz et al. 2003; Elitsur et al. 2006), an appropriate phenotype for an animal that lacks an endocrine mechanism involved in electrolyte homeostasis.

**Q.** With “^125I‐Y‐Ugn: N‐tyrosyl rat Ugn (Y‐Ugn, Bachem Inc.) iodinated as previously described; radioligand (YTDECELCINVACTGC; 125I-iodinated on the added N-terminal Tyr; two disulfides (Cys1-Cys3 and Cys2-Cys4 of the uroguanylin peptide, by convention); The 15-residue C-terminal peptide limits are by convention; check residu)” as the molecule, how does the Kd ([1]; T84 cell membranes (10–20 μg protein), filtration, gamma counter, R2 0.9659, n = 3) read?
**A.** 1.5 nM

**Q.** With CC[C@H](C)[C@@H]1NC(=O)[C@H](CCC(=O)O)NC(=O)[C@@H](NC(=O)[C@@H](NC(=O)[C@H](CC(N)=O)NC(=O)[C@@H]2CCCN2)[C@@H](C)O)CSSC[C@@H]2NC(=O)[C@H](C)NC(=O)[C@H](C)NC(=O)[C@H](Cc3ccc(O)cc3)NC(=O)[C@H](C)NC(=O)[C@H](CSSC[C@@H](C(=O)O)NC(=O)CNC(=O)[C@H]([C@@H](C)O)NC2=O)NC1=O [Gn, guanylin] (H-PNTCEICAYAACTGC-OH; disulfide 4-12, 7-15) as the molecule, how does the Ki [1] read?
**A.** 170 nM

**Q.** With CC[C@H](C)[C@@H]1NC(=O)[C@@H]2CSSC[C@@H](C(=O)O)NC(=O)CNC(=O)[C@H]([C@@H](C)O)NC(=O)[C@H](CSSC[C@H](NC(=O)[C@H](CCC(=O)O)NC(=O)[C@H](CC(=O)O)NC(=O)[C@@H](N)[C@@H](C)O)C(=O)N[C@@H](CCC(=O)O)C(=O)N[C@@H](CC(C)C)C(=O)N2)NC(=O)[C@H](C)NC(=O)[C@H](C(C)C)NC(=O)[C@H](CC(N)=O)NC1=O [Ugn, uroguanylin] (H-TDECELCINVACTGC-OH; disulfide 4-12, 7-15) as the molecule, how does the Ki [1] read?
**A.** 1.04 nM

B1: prouroguanylin (protein, UniProt P70668 22-106, looked up)
pro-form: VYIKYHGFQVQLESVKKLNELEEKQMSDPQQQKSGLLPDVCYNPALPLDLQPVCASQEAASTFKALRTIATDECELCINVACTGC
modifications: pro-form
notes: Recombinant rat proUgn, Ironwood Pharmaceuticals; also endogenous propeptide in plasma
**Q.** Which results are given for B1?
**A.** Ki [1]: 8900 nM; Plasma proUgn after renal artery ligation ([2]; endogenous, anesthetized rats, renal artery ligation): rose rapidly; Plasma proUgn after splanchnic ligation ([2]; endogenous, anesthetized rats, splanchnic ligation): fell to barely detectable levels; Postligation rate of rise of plasma proUgn relative to inulin ([2]; renal artery ligation, FITC-inulin infused, percentage basis): nearly identical to that of inulin; Time for appearance of nearly all recovered Ugn in urine after proUgn ([3]; intravascular bolus of exogenous proUgn, ref Moss et al. 2010): 30 to 60 min; Renal filtration and conversion ([3]; isotopically labeled recombinant proUgn infused intravascularly, ref Qian et al. 2008): readily filtered from plasma by the kidney, and converted within the kidney to Ugn; Natriuretic response [4]: natriuretic responses in rodents
